In patent publication US20240190958A1 (TUBULIS, published 2024):

Assays:
[1] = target: T1, recombinant human FcγRIIa/CD32 H131 (Lumit binding immunoassay) (human, UniProt P12318 34-217, limits assumed); test: Lumit FcγRIIa (CD32) (H131) Binding Immunoassay (Promega), competition with Tracer-LgBiT for FcγR-SmBiT, luminescence, n=1; left panel
T1 construct: Kit reagent (Promega), used as an FcγR-SmBiT fusion; also called FcγRIIa/CD32 R131/H131 polymorphism
T1 sequence (looked up): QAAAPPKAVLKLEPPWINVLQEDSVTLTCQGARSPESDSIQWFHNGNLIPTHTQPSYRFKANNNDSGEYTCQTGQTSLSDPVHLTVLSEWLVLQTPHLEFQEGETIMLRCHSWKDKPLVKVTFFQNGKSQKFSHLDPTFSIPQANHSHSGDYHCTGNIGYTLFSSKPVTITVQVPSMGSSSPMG
Procedure: Luminescence was measured on a microplate reader Infinite M200 Pro (Tecan).
FcγR interaction studies were performed using the Lumit™ FcγR Binding Immunoassays (FcγRn, FcγRI, FcγRIIa/CD32 R131/H131 polymorphism, FcγRIIIa/CD16 V158/F158 polymorphism; Promega) based on a competition principle and luciferase detection according to the manufacturer's instructions. […] Luminescence is measured on a microplate reader Infinite M200 Pro (Tecan)._Graphs show n=1.

[2] = target: T2, human NaPi2b on NaPi2b-positive cell lines OVCAR-3 and HCC-78 (human, UniProt O95436 1-690); test: cell-based or functional assay
T2 sequence: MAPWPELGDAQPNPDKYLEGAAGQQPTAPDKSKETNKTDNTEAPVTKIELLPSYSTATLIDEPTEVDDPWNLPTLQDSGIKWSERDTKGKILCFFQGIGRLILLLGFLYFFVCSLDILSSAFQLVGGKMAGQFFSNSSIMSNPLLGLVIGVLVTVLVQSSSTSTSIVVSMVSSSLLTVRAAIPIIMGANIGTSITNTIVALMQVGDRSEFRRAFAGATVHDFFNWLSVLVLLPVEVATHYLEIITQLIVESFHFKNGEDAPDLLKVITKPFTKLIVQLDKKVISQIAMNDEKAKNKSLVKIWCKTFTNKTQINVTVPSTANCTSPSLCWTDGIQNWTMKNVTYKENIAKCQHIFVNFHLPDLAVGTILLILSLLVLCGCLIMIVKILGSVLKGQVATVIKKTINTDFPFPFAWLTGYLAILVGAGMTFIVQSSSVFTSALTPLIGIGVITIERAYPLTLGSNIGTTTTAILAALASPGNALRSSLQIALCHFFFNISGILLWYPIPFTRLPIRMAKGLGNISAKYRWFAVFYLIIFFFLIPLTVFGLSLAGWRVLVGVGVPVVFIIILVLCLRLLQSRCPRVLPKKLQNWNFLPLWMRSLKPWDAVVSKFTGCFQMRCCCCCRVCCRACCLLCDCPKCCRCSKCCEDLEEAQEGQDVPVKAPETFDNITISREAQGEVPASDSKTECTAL

B1: AV25-P5(PEG24)-VC-PAB-Exatecan DAR8 ADC (antibody, human IgG1, kappa, L234A L235A)
heavy: not shown
light: DIQMTQSPSSLSASVGDRVTITCSASQDIGNFLNWYQQKPGKTVKVLIYYASSLYSGVPSRFSGSGSGTDYTLTISSLQPEDFATYYCQQYSKLPLTFGQGTKLELKRTVAAPSVFIFPPSDEQLKSGTASVVCLLNNFYPREAKVQWKVDNALQSGNSQESVTEQDSKDSTYSLSSTLTLSKADYEKHKVYACEVTHQGLSSPVTKSFNRGEC
modifications: P5(PEG24)-VC-PAB-Exatecan linker-payload on the interchain cysteine residue (light chain adduct 1; DAR8 in total); P5(PEG24)-VC-PAB-Exatecan linker-payload on interchain cysteine residues (heavy chain adducts up to 3; DAR8 in total)
notes: also called TUB-040
[1]
  binding result: no binding (tested: 250 µg/ml)
[2]
  cytotoxicity (resazurin assay) on HCC-78, fold lower IC50 against the anti-Napi2b comparison ADC: 15.5 fold

B2: AV25 mAb (LALA-silenced, AV25 HC-LALA) (antibody, human IgG1, kappa, L234A L235A)
heavy: not shown
light: DIQMTQSPSSLSASVGDRVTITCSASQDIGNFLNWYQQKPGKTVKVLIYYASSLYSGVPSRFSGSGSGTDYTLTISSLQPEDFATYYCQQYSKLPLTFGQGTKLELKRTVAAPSVFIFPPSDEQLKSGTASVVCLLNNFYPREAKVQWKVDNALQSGNSQESVTEQDSKDSTYSLSSTLTLSKADYEKHKVYACEVTHQGLSSPVTKSFNRGEC
notes: IgG1 kappa; also called unmodified AV25 mAb
[1]
  binding result: no binding (tested: 250 µg/ml)
